Laboratory results as given in doi:10.1101/2025.08.01.668162.
Like-named read-outs stand apart in the source and are kept apart here.

What was measured:
[1] = target: SEL1L S658P (mouse knock-in) (mouse (endogenous in MEFs and liver)) (UniProt Q9Z2G6); assay: co-IP
[2] = target: SEL1L S658P (mouse knock-in) (mouse (endogenous in MEFs and liver)) (UniProt Q9Z2G6); assay: co-IP; remark: listed apart in the source

Chain of UniProt Q9Z2G6 (Q9Z2G6 22-790, stated change not applied): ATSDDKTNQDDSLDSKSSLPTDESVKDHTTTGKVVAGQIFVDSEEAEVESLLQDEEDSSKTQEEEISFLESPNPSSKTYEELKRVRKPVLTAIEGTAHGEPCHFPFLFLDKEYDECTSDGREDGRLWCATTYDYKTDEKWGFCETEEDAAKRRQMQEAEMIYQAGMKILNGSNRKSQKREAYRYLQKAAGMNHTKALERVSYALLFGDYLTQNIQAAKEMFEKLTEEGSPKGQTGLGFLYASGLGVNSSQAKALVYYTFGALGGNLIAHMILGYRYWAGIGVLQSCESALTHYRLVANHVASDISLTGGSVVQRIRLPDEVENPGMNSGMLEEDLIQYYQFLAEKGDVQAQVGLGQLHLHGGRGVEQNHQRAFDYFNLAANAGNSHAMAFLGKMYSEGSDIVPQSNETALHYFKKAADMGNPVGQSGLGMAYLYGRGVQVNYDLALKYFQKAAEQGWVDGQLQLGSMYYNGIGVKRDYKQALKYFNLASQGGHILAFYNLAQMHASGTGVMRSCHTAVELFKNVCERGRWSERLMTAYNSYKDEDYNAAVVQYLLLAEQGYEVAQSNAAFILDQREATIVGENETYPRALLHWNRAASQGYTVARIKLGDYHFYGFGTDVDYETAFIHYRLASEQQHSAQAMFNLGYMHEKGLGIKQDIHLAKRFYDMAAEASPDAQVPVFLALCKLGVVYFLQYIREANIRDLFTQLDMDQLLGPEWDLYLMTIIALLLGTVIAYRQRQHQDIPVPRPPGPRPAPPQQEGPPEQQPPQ

HRD1 (mouse) (from UniProt Q9DBY1 1-612) (natural protein)
percent reduction of co-precipitated HRD1 against WT SEL1L [1]: 80%
percent reduction of co-precipitated HRD1 against WT SEL1L [2]: 60%
